Source: patent publication US20240352070

Target: T1, FRET substrate peptide KLRMKLPKP
T1 chain: KLRMKLPKP

B1: human cathepsin S wild-type, amino acids 17 to 331, C-terminal His-tag (CTSS-His) (protein)
chain: LPDSVDWREKGCVTEVKYQGSCGACWAFSAVGALEAQLKLKTGKLVSLSAQNLVDCSTEKYGNKGCNGGFMTTAFQYIIDNKGIDSDASYPYKAMDQKCQYDSKYRAATCSKYTELPYGREDVLKEAVANKGPVSVGVDARHPSFFLYRSGVYYEPSCTQNVNHGVLVVGYGDLNGKEYWLVKNSWGHNFGEEGYIRMARNKGNHCGIASFPSYPEI
cleavage in FRET assay: validating the identified peptide by showing in a FRET assay that it is cleaved by cathepsin S
